What all share (type): cell-based
Holding throughout (set-up): key: *: up in IL-1α treatment; **: up in OPG treatment, down in thrombopoietin treatment; ***: up in IFNγ treatment; ****: up in IL-6 treatment

One test concerns TF-1, Erythroleukemia. Nature of the test: GeneCalling confirmation of gene expression changes in TF-1 cells. To be noted: confirmed by GeneCalling.
The next test relates to MG-63, Osteosarcoma. The test can be described thus: GeneCalling confirmation of gene expression changes in MG-63 cells. The conditions noted are these: confirmed by GeneCalling; for Collagen gene expression change: up with OPG, down with thrombopoietin.
For another test, the system named is U-87MG, Astrocytoma. Nature of the test: GeneCalling confirmation of gene expression changes in U-87MG cells. The conditions noted are these: confirmed by GeneCalling.

Consider five molecules from patent US20010046665A1, “Method of identifying the function of a test agent” (priority 2000, published 2001).

On to “IL-6: known protein used to treat the indicated cell lines in GeneCalling confirmation”, for which the “ICAM-1 gene expression change” value in the test on TF-1, Erythroleukemia is listed as “ICAM-1****”.
For the molecule “thrombopoietin: known protein used to treat the indicated cell lines in GeneCalling confirmation”, in the test on MG-63, Osteosarcoma, the “Collagen gene expression change” value was “Collagen**”.

B1: OPG: known protein used to treat the indicated cell lines in GeneCalling confirmation (protein, UniProt O00300 22-401, looked up)
Tumor necrosis factor …: ETFPPKYLHYDEETSHQLLCDKCPPGTYLKQHCTAKWKTVCAPCPDHYYTDSWHTSDECLYCSPVCKELQYVKQECNRTHNRVCECKEGRYLEIEFCLKHRSCPPGFGVVQAGTPERNTVCKRCPDGFFSNETSSKAPCRKHTNCSVFGLLLTQKGNATHDNICSGNSESTQKCGIDVTLCEEAFFRFAVPTKFTPNWLSVLVDNLPGTKVNAESVERIKRQHSSQEQTFQLLKLWKHQNKDQDIVKKIIQDIDLCENSVQRHIGHANLTFEQLRSLMESLPGKKVGAEDIEKTIKACKPSDQILKLLSLWRIKNGDQDTLKGLMHALKHSKTYHFPKTVTQSLKKTIRFLHSFTMYKLYQKLFLEMIGNQVQSVKISCL
In the case of B1, in the test on MG-63, Osteosarcoma, the “Collagen gene expression change” value was “Collagen**”.

B2: IFNγ: known protein used to treat the indicated cell lines in GeneCalling confirmation (protein, UniProt P01579 24-161, looked up)
Interferon gamma: QDPYVKEAENLKKYFNAGHSDVADNGTLFLGILKNWKEESDRKIMQSQIVSFYFKLFKNFKDDQSIQKSVETIKEDMNVKFFNSNKKKRDDFEKLTNYSVTDLNVQRKAIHELIQVMAELSPAAKTGKRKRSQMLFRG
With B2, the “IRF-1 gene expression change” value in the test with TF-1, Erythroleukemia is reported as “IRF-1***”; in the test with U-87MG, Astrocytoma it was “IRF-1***”.

B3: IL-1α: known protein used to treat the indicated cell lines in GeneCalling confirmation (protein, UniProt P01583 113-271, looked up)
Interleukin-1 alpha: SAPFSFLSNVKYNFMRIIKYEFILNDALNQSIIRANDQYLTAAALHNLDEAVKFDMGAYKSSKDDAKITVILRISKTQLYVTAQDEDQPVLLKEMPEIPKTITGSETNLLFFWETHGTKNYFTSVAHPNLFIATKQDYWVCLAGGPPSITDFQILENQA
Take B3: in the test with MG-63, Osteosarcoma, the “Factor B gene expression change” value is reported as “Factor B*”, the “IL-8 gene expression change” value is “IL-8*”, the “IRF-1 gene expression change” value is “IRF-1*” and the “LOX gene expression change” value is “LOX*”. In addition, in the test on MG-63, Osteosarcoma, the “MxA gene expression change” value is “MxA*” and the “TAP-1 gene expression change” value is “TAP-1*”. In addition, in the test on U-87MG, Astrocytoma, the “IL-8 gene expression change” value is on record as “IL-8*”, the “MCP-1 gene expression change” value is recorded as “MCP-1*” and the “Tenascin-c gene expression change” value was “Tenascin-c*”.
